Patent US8247227B2, “Dendritic cell precursors” (The Cleveland Clinic Foundation, priority 2006, dated 2012)

Key:
[1] = tested on: CD34^pos stem cell subpopulation; assay: Step 1 proliferative culture of fresh bone marrow: numeric expansion; type: cell-based, mouse
Experimental: FIG. 6 is a chart showing numeric expansion resulting from the exposure of bone marrow (BM) suspensions to various factors. BM freshly harvested from C57BL/6 mice was cultured for 6 days in the specific factors, then harvested and counted. Each bar represents 3-11 determinations±s.d., each performed in synchronous comparison to at least five other groups. […] Synergistic expansions reflected a 35-80 fold selective outgrowth of the CD34^pos subpopulation (see FIG. 10);
FIG. 10 is a histogram showing gross numeric expansion of fresh bone marrow (BM) reflective of selective outgrowth of the CD34^pos subpopulation. Freshly prepared mouse BM cell suspensions were stained with FITC-anti-CD34 mAb to enable isolation of CD34^pos and CD34^neg subpopulations by a FACSAria cell sorter. CD34^pos cells initially represented 10.8±7% of the total BM cells. The following groups were then cultured for 6 days in 75 cm^2 flasks, either in Flt3L+SCF+IL6 (striped bars) or in Flt3L+IL6 (solid bars): “Unfractionated BM” (12-15 million per flask); “FACS sorted CD34^neg cells” (12-15 million per flask); “FACS sorted CD34^pos cells” (2-3 million per flask); or “FACS sorted, unirradiated CD34^pos cells plus irradiated (3,000 cGy) CD34^neg cells.” Labels above bars indicate fold numeric expansion during the 6 day culture. […] (Not done=group not done);
We cultured fresh mouse BM in two stages, a 6-7 day proliferative phase (Step 1) and a 2-3 day post-proliferative phase (Step 2). […] FACS sorting experiments confirmed that such expansion represented a net 35-80 fold proliferation of the minor (<12%) CD34^pos stem cell subpopulation, with rapid dropout of the initially CD34^neg subpopulation (FIG. 10). Stem cell proliferation persisted well past day 7 if medium and factors were adequately replenished (not shown).
Single cell suspensions were prepared from the femurs and tibias of healthy mice (Kuriyama, H. et al. Dev. Biol. (Basel) 116, 169-178 (2004)). Following RBC lysis by ammonium chloride, no further processing was performed. […] BM cells were normally cultured for 6-7 days, harvested, counted, and washed twice in PBS prior to initiation of Step 2 cultures.

[2] = tested on: CD11c^pos cells and CD34^pos cells; assay: In vivo cytokine treatment for six days: spleen and BM CD11c^pos and CD34^pos cells; design: species or system BALB/c mice; settings: with rhFlt3-L 10 mcg i.p. daily
Source text: FIGS. 15A-D are a series of graphs showing BALB/c mice treated for six days with either (A) nothing, (B) rhFlt3-L 10 mcg i.p. daily, (C) rhIL-6 mcg i.p. three times daily, and (D) rhFlt3-L 10 mcg i.p. daily plus rhIL-6 50 mcg i.p. three times daily. The next day mice were euthanized, spleens and BM harvested, and CD11c^pos cells (committed DC lineage) and CD34^pos cells (stem cells, potential DC precursors) quantified. Results are representative of four experiments. […] This is representative of four experiments;
FIGS. 16A-D are a series of graphs showing BALB/c mice treated for six days with either (A) nothing, (B) rhFlt3-L 10 mcg i.p. daily, (C) rhFlt3-L 10 mcg i.p. daily plus rhIL-6 50 mcg i.p. three times daily, (D) rhFlt3-L 10 mcg i.p. daily plus rhIL-6 50 mcg i.p. once daily, (E) rhFlt3-L 10 mcg i.p. daily plus rhIL-6 10 mcg i.p. three times daily, and (F) rhFlt3-L 10 mcg i.p. daily plus rhIL-6 10 mcg i.p. once times daily. The next day mice were euthanized, spleens and BM harvested, and CD11c^pos cells (committed DC lineage) and CD34^pos cells (stem cells, potential DC precursors) quantified. Results are representative of three experiments.

conditioned BM cells = assay: Tumor contact during Step 2 culture: DC maturation and IL12 production; type: cell-based, mouse
Experimental: Because DC ingestion of cellular material can induce tolerogenic DCs (Bonifaz, L. et al. J. Exp. Med. 196, 1627-1638 (2002)), we tested the impact of exposing DCs to large volumes of tumor at 16-24 hours of Step 2 culture in GMCSF, to determine tumor's impact on subsequent spontaneous maturation. To cluster plate wells each containing 4 million conditioned BM cells, we added either 4 million freeze-thawed (killed) tumor cells; 3 million irradiated (10,000 cGy), trypan-excluding tumor cells; or 2 million unirradiated, actively proliferating tumor cells. Given the much larger dimensions of viable tumor cells compared to the cultured BM cells, these represented voluminous tumor challenges.
(§1) Step 2 was initiated (0 hr) in CM, rmGMCSF and optionally rmIL4. Step 2 cultures were performed in 24 well cluster plates, 4 million BM cells per well in 2 ml CM. DC1 polarization stimuli such as CpG (ODN 1826, 5 μM) and LPS 50 ng/ml were added between 18-24 hrs, and cells harvested at 40-44 hrs for analyses. When included, immunosuppressive agents rmIL10, rmVEGF, rhTGFβ1 or PGE2 were added between 0 and 24 hrs of Step 2 culture at doses specified in Results. Alternatively, particulate tumor cells, either viable unirradiated, viable irradiated (10,000 cGy), or killed freeze-thawed lysate (Cohen, P A et al. Cancer Res. 54, 1055-1058 (1994)), were added to Step 2 BM cells. Viable tumor cells were sometimes labelled with CFSE (Molecular Probes, Eugene, Oreg.) to allow their identification and exclusion during subsequent FACS analyses (Peng, L. et al. J. Immunol. 169, 4811-4821 (2002)).

mouse tumors = settings: single agent; cited from earlier work
[3] = single agent; cited from earlier work
BM cells [4] = assay: Step 2 culture: DC maturation and IL-12 production upon CpG+LPS after Step 1 conditioning; type: cell-based, mouse; settings: for Step 2 response to TLR agonists (DC maturation) after Step 1 conditioning: CpG+LPS stimulation
Source text: Following Step 1 conditioning, BM cultures were washed thoroughly and exposed to TLR agonists to test the cells' potential for DC maturation and IL-12 production during Step 2 culture. Since TLR9 and TLR4 were invariably expressed by mouse BM cells at the end of Step 1 cultures (not shown), we standardly employed CpG (ODN 1826) and lipopolysaccharide (LPS) to stimulate coordinate activation of MyD88 and TRIF pathways (Napolitani, G. et al. Nat. Immunol. 6, 769-776 (2005)).
as §1
For routine multicolor FACS analyses, BM cells were cultured in anti-CD32 mAb plus normal mouse IgG to block FcRs, then directly stained with conjugated specific mAbs or isotype controls as listed in the figures (BD-Pharmingen, Mountain View, Calif.) (Peng, L. et al. J. Immunol. 165, 5738-5749 (2000)). When additionally assessing IL12 production at the cellular level, the last 16 hrs of Step 2 culture were performed in monensin (Golgistop™, BD-PharMingen). Then, following FcR block and direct staining of surface molecules, cells were fixed in formalin and permeabilized in tween (CytoPerm/CytoFix™, PharMingen), then additionally stained with PE-anti-mouse IL12p40 (BD-Pharmingen) or isotype control.
Assessments of supernatant contents of mIL12p70 heterodimer were performed with BD-Pharmingen reagents. mIFNα and mIFNβ ELISAs were performed with kits from PBL Biomedical Laboratories (New Brunswick, N.J.).

BM cells [5] = assay: Step 2 culture: spontaneous DC maturation without exogenous maturation stimuli; type: cell-based, mouse
Source text: DC differentiation typically arrests at the immature stage unless DCs are exposed to additional signals such as CD40 ligation, calcium ionophore or TLR agonists (Xu, S. et al. J. Immunol. 171, 2251-2261 (2003); Bonifaz, L. et al. J. Exp. Med. 196, 1627-1638 (2002); Napolitani, G. et al. Nat. Immunol. 6, 769-776 (2005); Czerniecki, B J et al. J. Immunol. 159, 3823-3837 (1997); Mailliard, R B et al. Cancer Res. 64, 5934-5937 (2004)). […] Instead, uniform upregulation of MHC Class II and CD11c ensued within hours of transfer from Flt3L+IL6 into GMCSF, followed by upregulation of CD40, co-stimulatory molecules and CCR7 between 48 and 72 hours of Step 2 culture.
as §1

STAT3KO BM = assay: Conditioning of STAT3 knockout BM; type: cell-based, mouse
Experimental: (§2) FIG. 18 illustrates responses of STAT knockout vs. wildtype littermate BM to Flt3-L+IL-6 vs. GMCSF-containing conditioning regiments. […] BM was obtained from KO mice or from matched wildtype LMs, placed in standard Step 1 cultures with Flt3-L+IL-6, Flt3-L+IL-6+GMCSF, or GMCSF alone as conditioning agents, then placed in 48 hr Step 2 cultures with GMCSF+IL-4 with CpG+LPS included during the final 18 hours. […] Data are presented as mean±s.d. of 3 replicates and are representative of three (STAT5KO vs LM) or two (STAT3KO vs LM) independently performed experiments;
(§3) We examined how STAT knockout BM preparations responsed to Flt3L+IL-6 conditioning. […] Therefore, the proliferative and differentiative impacts of Flt3-L+IL-6 conditioning were absolutely STAT3-dependent, whereas final phenotypic maturation and DC1-polarization were at least partially STAT5-dependent.
(§4) We also examined how STATKO BM preparations responded to GMCSF-containing Step 1 regimens (GMCSF alone, Flt3-L+GMCSF, or Flt3-L+GMCSF+IL-6). […] Therefore, all tested GMCSF-containing regimens promoted STAT5-dependent DC differentiation, with later phenotypic maturation and DC1-polarization proving susceptible to inhibition through STAT3.

L-selectin^low T cells = assay: T cell co-cultures with variously conditioned DCs; type: cell-based, mouse; settings: DCs prepared after the named Step 1 conditioning
Experimental: Step 2 DC cultures were performed in rGMCSF and rIL-4 with irradiated MCA-203 cells added at 24 hr and CpG+LPS added at 44 hr. Four hours later, DCs were harvested for co-culture with L-selectin^low T cells freshly harvested from MCA-203 tumor-bearing mice. T cells were co-cultured with DCs at an 8:1 ratio or were activated with immobilized anti-CD3. […] Cultures shown also received exogenous IL-2, IL-7 and IL-15.
Cultures shown also received exogenous IL2, IL7 and IL15.
Conditioned DC precursors were transferred to Step 2 culture, exposed to viable irradiated tumor, optionally further activated with CpG+LPS, then co-cultured with tolerized TDLN T cells from mice bearing the relevant tumor.
Prior to harvest of T cells from tumor-bearing mice, DCs were prepared under various Step 1 conditions in CM; Step 2 was performed in 1% non heat-deactivated mouse serum instead of FCS (CM-MS), during which BM cultures were exposed to viable irradiated tumor cells, then CpG+LPS as denoted in Results. On the day of DC harvest, T cells were freshly harvested from the tumor-draining lymph nodes of mice bearing 12 day tumors. The L-selectin^low (tolerized pre-effector) fraction of T cells was isolated by negative selection as described previously (Peng, L. et al. J. Immunol. 165, 5738-5749 (2000); Wang, L. et al. J. Translational Med. 2, 41 (2004)), and cultured in CM-MS with immobilized anti-CD3 (Peng, L. et al. J. Immunol. 165, 5738-5749 (2000); Wang, L. et al. J. Translational Med. 2, 41 (2004)) or variously conditioned DCs. Beginning on day 2 of T cell culture, some groups also received rhIL2 (24 I.U./m1), or rhIL2, rhIL7 (50 ng/ml) and rhIL15 (5 ng/ml). T cells were harvested for assays and adoptive therapy after 12 days of culture.

[6] = tested on: CD11c^pos (committed DC) subpopulation; assay: In vivo responses to TLR agonists; design: species or system mouse; settings: i.p. treatment
Experimental: FIG. 21 is a bar graph showing in vivo responses to TLR agonists. Mice were injected for 6 days with 10 mcg i.p. rhFlt3-L or no treatment. On the subsequent day, some mice were treated with a single i.p. injection for rmGMCSF 12 mcg. On the subsequent day, some mice were injected with i.p. with 50 mcg CpG (ODN 1826) and 100 mcg pI:C. […] The next day, mice were euthanized and spleens counted and analyzed by FACS for the activation status of the CD11c^pos (committed DC) subpopulation. MHC Class II, CD40, and CD86 (B7.2) were co-analyzed.

STAT5KO BM = assay: Conditioning of STAT5 knockout BM; type: cell-based, mouse
Experimental: as §2, §3, §4

For rhIL6: recombinant human interleukin-6, the “effectiveness as alternative Step 1 factor” value ([1]; rhIL6 100 ng/ml instead of mIL6, rSCF instead of mSCF) was “also effective”, the “10 mcg versus 50 mcg dosing” value [2] was “as effective as 50 mcg dosing” and the “thrice daily versus once daily administration” value [2] was “more effective than once daily”.

B1: IFNγ: recombinant mouse interferon gamma (protein, UniProt P01580 23-155, looked up)
Interferon gamma: HGTVIESLESLNNYFNSSGIDVEEKSLFLDIWRNWQKDGDMKILQSQIISFYLRLFEVLKDNQAISNNISVIESHLITTFFSNSKAKKDAFMSIAKFEVNNPQVQRQAFNELIRVVHQLLPESSLRKRKRSRC
With B1 the IL12 production (conditioned BM cells; IFNγ treatment alone) was “Neither tumor nor IFNγ treatment alone induced IL12 production” and the “IL12 (p70) production” value (conditioned BM cells; tumor exposure combined with IFNγ, Flt3L+IL6 conditioned) was “could induce IL12 (p70) production”.

B2: interleukin-6 (protein, UniProt P08505 25-211, looked up)
Interleukin-6: FPTSQVRRGDFTEDTTPNRPVYTTSQVGGLITHVLWEIVEMRKELCNGNSDCMNNDDALAENNLKLPEIQRNDGCYQTGYNQEICLLKISSGLLEYHSYLEYMKNNLKDNKKDKARVLQRDTETLIHIFNQEVKDLHKIVLPTPISNALLTDKLESQKEWLRTKTIQFILKSLEEFLKVTLRSTRQT
For B2, the “therapeutic properties against established mouse tumors” value (mouse tumors) is given as “extremely potent therapeutic properties”.

B3: Flt3 ligand (protein, UniProt P49771 27-235, looked up)
Fms-related tyrosine kinase 3 …: TQDCSFQHSPISSDFAVKIRELSDYLLQDYPVTVASNLQDEELCGGLWRLVLAQRWMERLKTVAGSKMQGLLERVNTEIHFVTKCAFQPPPSCLRFVQTNISRLLQETSEQLVALKPWITRQNFSRCLELQCQPDSSTLPPPWSPRPLEATAPTAPQPPLLLLLLLPVGLLLLAAAWCLHWQRTRRRTPRPGEQVPPVPSPQDLLLVEH
notes: recombinant human Flt3 ligand, gift of Amgen
For B3, the “myeloproliferative activity in animals” value [3] is listed as “highly myeloproliferative”, the “numeric expansion during Step 1 culture” value ([1]; fresh mouse BM, 6-7 day Step 1 culture) is listed as “yielded only a fraction of culture input” and the “Step 2 response to TLR agonists (DC maturation) after Step 1 conditioning” value (BM cells [4]) is listed as “nearly global licensing for pronounced TLR reactivity”. The “spontaneous DC maturation during Step 2 culture” value (BM cells [5]; after Step 1 conditioning, no exogenous maturation stimuli) was “spontaneous tendency to complete DC maturation”.

B4: granulocyte-macrophage colony stimulating factor (protein, UniProt P01587 18-141, looked up)
Granulocyte-macrophage …: APTRSPITVTRPWKHVEAIKEALNLLDDMPVTLNEEVEVVSNEFSFKKLTCVQTRLKIFEQGLRGNFTKLKGALNMTASYYQTYCPPTPETDCETQVTTYADFIDSLKTFLTDIPFECKKPGQK
notes: murine GMCSF from Immunex
For B4, the “survival / proliferation of STAT3KO BM in Step 1 conditioning” value (STAT3KO BM) was “normal proliferation kinetics”, the “maturational and IL-12p70 response of STAT3KO DCs” value (STAT3KO BM; TLR stimulation, Step 2) was “abnormally heightened maturational and IL-12p70 response to TLR stimulation” and the “effect of conditioned DCs on tolerized T cell co-cultures (proliferation / toxicity)” value (L-selectin^low T cells) was “ineffective for propagating the T cells”. For the same molecule, the “activation of maturation markers MHC Class II, CD40, CD86 on CD11c^pos spleen cells” value [6] was “further enhanced”, the “effect of GMCSF as Step 1 agent on licensing of tumor-induced activation by Flt3L+IL6” value (conditioned BM cells) was “fully abrogated” and the “proliferation and DC differentiation of STAT5KO BM” value (STAT5KO BM) was “strikingly ineffective for generating DCs”. The “Step 2 response to TLR agonists (DC maturation) after Step 1 conditioning” value (BM cells [4]) was “infrequent and/or blunted responses to the TLR agonists”, the “effect of GMCSF addition during Step 2 culture” value (BM cells [4]; GMCSF added in Step 2 only) was “not at all inhibitory” and the “effect of co-conditioning with GMCSF on Flt3L+IL6's licensing impact” value (BM cells [4]; GMCSF present in Step 1) was “abrogated”. The “effect of GMCSF as Step 1 agent on licensing of spontaneous DC maturation by Flt3L or Flt3L+IL6” value (BM cells [5]) was “fully abrogated”.
